Test results: the supplement of paper PMC7125110
± gives the standard error. Fewer inactive variants are shown than the library holds.

B1: glmS ribozyme (parent)
chain: AUAAAAGCGCCAGAACUACAGAAAUGUAGUUGACGAGGAGGAGGUUUAUCGAAUUUUCGGCGGAUGCCUCCAAA

Assays:
Conditions in all cases: with glucosamine-6-phosphate
glucosamine-6-phosphate [1] = variants of: B1; assay: self-cleavage kobs at 40 uM GlcN6P; higher = faster cleavage; RNA array
Procedure, shortened: (§1)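 Tiles of sequenced MiSeq chips were imaged over ~14 h at 37 °C. On them, barcoded ribozyme variants had been transcribed in situ by E. coli RNA polymerase and were tracked via a hybridised Cy3 probe while glucosamine-6-phosphate (40 μM to 10 mM) in HEPES/KCl/Mg(OAc)2 buffer flowed in. Per-tile medians, normalised to baseline and to non-cleaving reference variants, were fit to one- or two-exponential decays for kobs, and weighted Michaelis–Menten fits gave kcat and KM.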

glucosamine-6-phosphate [2] = variants of: B1; assay: self-cleavage kobs at 160 uM GlcN6P; higher = faster cleavage; RNA array
Procedure, shortened: as §1

glucosamine-6-phosphate [3] = variants of: B1; assay: self-cleavage kobs at 640 uM GlcN6P; higher = faster cleavage; RNA array
Procedure, shortened: as §1

glucosamine-6-phosphate [4] = variants of: B1; assay: self-cleavage kobs at 2500 uM GlcN6P; higher = faster cleavage; RNA array
Procedure, shortened: as §1

glucosamine-6-phosphate [5] = variants of: B1; assay: self-cleavage kobs at 10000 uM GlcN6P; higher = faster cleavage; RNA array
Procedure, shortened: as §1

Row | Variant | self-cleavage kobs at 40 uM GlcN6P (glucosamine-6-phosphate [1]) [s⁻¹] | self-cleavage kobs at 160 uM GlcN6P (glucosamine-6-phosphate [2]) [s⁻¹] | self-cleavage kobs at 640 uM GlcN6P (glucosamine-6-phosphate [3]) [s⁻¹] | self-cleavage kobs at 2500 uM GlcN6P (glucosamine-6-phosphate [4]) [s⁻¹] | self-cleavage kobs at 10000 uM GlcN6P (glucosamine-6-phosphate [5]) [s⁻¹]
1 | C10U G43C | < 1e-05 | < 1e-05 | < 1e-05 | < 1e-05 | < 1e-05
2 | G9U G44C A64C | < 1e-05 | – | – | – | < 1e-05
3 | C11A A14C G63C U69C | < 1e-05 | – | – | – | –
4 | G9U C34A | < 1e-05 | < 1e-05 | < 1e-05 | – | < 1e-05
5 | G9U C34U | < 1e-05 | – | < 1e-05 | < 1e-05 | < 1e-05
6 | C10G C50U U54G U56G | < 1e-05 | – | – | – | < 1e-05
7 | C11A U31C G44C C70U | < 1e-05 | – | – | – | –
8 | C10A U57C | < 1e-05 | < 1e-05 | – | – | –
9 | C10U U45C G63A | < 1e-05 | < 1e-05 | < 1e-05 | – | –
10 | C10G G51C | < 1e-05 | < 1e-05 | < 1e-05 | – | < 1e-05
11 | C10A G62C | < 1e-05 | < 1e-05 | < 1e-05 | – | –
12 | C10U G63U A64U | < 1e-05 | – | – | – | –
13 | C11A G44U U54C | < 1e-05 | – | – | < 1e-05 | –
14 | C10U C50U U57C | < 1e-05 | – | – | – | –
15 | C11A A33U U54A | < 1e-05 | – | – | – | –
16 | C10G U56G C68A | < 1e-05 | – | – | – | –
17 | C10A G38U G59A G60A G62A A64U G66C C68G | 0.000187 ± 6.6e-05 | – | – | – | –
18 | C11A G29U G59U | 0.000103 ± 2.9e-05 | – | – | – | –
19 | C10U A33U G35A | < 1e-05 | – | – | – | < 1e-05
20 | C10G A53U G59A C70G | < 1e-05 | – | – | – | < 1e-05
21 | G9C G59U | < 1e-05 | < 1e-05 | < 1e-05 | < 1e-05 | –
22 | G9U G66A | < 1e-05 | < 1e-05 | < 1e-05 | – | < 1e-05
23 | C10U C68A C71U | < 1e-05 | – | – | – | –
24 | C10A A52U U56G | < 1e-05 | < 1e-05 | < 1e-05 | < 1e-05 | < 1e-05
25 | C11A G35C | < 1e-05 | < 1e-05 | < 1e-05 | < 1e-05 | –
26 | C11A G40C U54A | < 1e-05 | – | – | – | –

Row | Variant | self-cleavage kobs at 40 uM GlcN6P (glucosamine-6-phosphate [1]) [s⁻¹] | self-cleavage kobs at 160 uM GlcN6P (glucosamine-6-phosphate [2]) [s⁻¹] | self-cleavage kobs at 640 uM GlcN6P (glucosamine-6-phosphate [3]) [s⁻¹] | self-cleavage kobs at 2500 uM GlcN6P (glucosamine-6-phosphate [4]) [s⁻¹] | self-cleavage kobs at 10000 uM GlcN6P (glucosamine-6-phosphate [5]) [s⁻¹]
27 | C10G G13A U47G | < 1e-05 | – | – | – | –
28 | G9U G44U | < 1e-05 | – | < 1e-05 | < 1e-05 | < 1e-05
29 | C10G U57G | < 1e-05 | – | < 1e-05 | < 1e-05 | < 1e-05
30 | C10U A15C C34A A36G G43C U49C | < 1e-05 | < 1e-05 | – | < 1e-05 | < 1e-05
31 | C10U G60C | < 1e-05 | < 1e-05 | < 1e-05 | < 1e-05 | < 1e-05
32 | C11G G13A G32U | < 1e-05 | – | – | – | –
33 | C11A U45C A48G | < 1e-05 | – | < 1e-05 | < 1e-05 | < 1e-05
34 | C11A C50G G62U | 0.000115 ± 2.8e-05 | – | – | – | 0.000116 ± 2.6e-05
35 | G9U G37A C67U C71G | < 1e-05 | – | – | – | –
36 | C10U G21U G59C | < 1e-05 | – | < 1e-05 | < 1e-05 | –
37 | C10A C11U | < 1e-05 | < 1e-05 | – | < 1e-05 | < 1e-05
38 | C10A C11A | < 1e-05 | – | < 1e-05 | – | < 1e-05
39 | C10A A48G | < 1e-05 | < 1e-05 | < 1e-05 | – | < 1e-05
40 | C10U G40C | < 1e-05 | < 1e-05 | – | < 1e-05 | < 1e-05
41 | C10U G40U | < 1e-05 | – | – | – | < 1e-05
42 | C11A C58A A64G | < 1e-05 | – | – | – | –
43 | G9C U55G | < 1e-05 | – | – | – | < 1e-05
44 | C11A C34A U47G | < 1e-05 | – | – | < 1e-05 | –
45 | C10G G37U G40C G41U C50G | < 1e-05 | – | – | – | –
46 | C10U G32A A39C U57C C61G C68G | < 1e-05 | – | < 1e-05 | – | < 1e-05
47 | C11G A14G A39U | < 1e-05 | – | – | – | –
48 | C10G U49G G60C | < 1e-05 | – | < 1e-05 | – | –
49 | C10G A52C U56A C71U | < 1e-05 | – | – | – | –
50 | C11A G29U C67G C68G | 3.88e-05 ± 1.7e-05 | – | – | – | –
51 | G9U A53U | < 1e-05 | < 1e-05 | < 1e-05 | – | < 1e-05
